Experimental data published in US20150037348A1 (AbbVie / Abbott, published 2015).

How the values were obtained:
Test in all cases: competition ELISA: soluble cytokine against J695 (100 ng/ml) binding to immobilized human IL-12
human lymphotoxin = biological target: T1, human lymphotoxin (human, UniProt P01374 35-205, limits assumed)
T1 sequence (looked up): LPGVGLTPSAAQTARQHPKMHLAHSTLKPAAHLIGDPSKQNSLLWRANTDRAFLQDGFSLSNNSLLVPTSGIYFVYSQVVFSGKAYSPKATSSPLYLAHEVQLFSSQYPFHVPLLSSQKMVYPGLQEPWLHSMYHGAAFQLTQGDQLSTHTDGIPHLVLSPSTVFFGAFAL
Experimental: (§1) The plates were washed 4 times and incubated for 1 h at room temperature with 100 μl mouse anti-human lambda-HRP (1:500 in PBS-T/BSA, Southern Biotech. Ass. Inc., Birmingham, Ala.). The plates were washed 4 times and developed with ABTS (Kirkegaard & Perry Lab, Gaithersburg, Md.) for 20-30 minutes in the dark. The OD₄₅₀ nm was read using a microplate reader (Molecular Devices, Menlo Park, Calif.).

[1] = biological target: T2, human soluble IL-6 receptor (human, UniProt P08887 20-358)
T2 construct: Soluble form
T2 sequence (looked up): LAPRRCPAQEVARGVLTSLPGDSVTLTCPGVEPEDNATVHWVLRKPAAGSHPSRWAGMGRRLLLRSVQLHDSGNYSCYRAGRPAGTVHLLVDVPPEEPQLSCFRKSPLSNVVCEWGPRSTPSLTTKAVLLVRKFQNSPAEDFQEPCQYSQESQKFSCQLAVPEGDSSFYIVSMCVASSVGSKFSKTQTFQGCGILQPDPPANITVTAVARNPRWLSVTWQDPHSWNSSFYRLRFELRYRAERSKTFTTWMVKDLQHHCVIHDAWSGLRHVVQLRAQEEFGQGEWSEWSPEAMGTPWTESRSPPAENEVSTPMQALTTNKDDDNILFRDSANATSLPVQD
Experimental: as §1

human IL-11 = biological target: T3, human IL-11 (human, UniProt P20809 22-199)
T3 sequence (looked up): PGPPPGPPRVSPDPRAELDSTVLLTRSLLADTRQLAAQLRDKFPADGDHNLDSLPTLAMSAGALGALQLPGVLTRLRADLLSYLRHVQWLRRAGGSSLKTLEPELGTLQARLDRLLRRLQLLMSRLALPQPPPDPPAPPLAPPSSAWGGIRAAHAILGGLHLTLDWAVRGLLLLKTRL
Experimental: as §1

human IL-1β = human IL-1β (human, UniProt P01584 117-269)
Experimental: as §1

human IL-6 = human IL-6 (human, UniProt P05231 30-212)
Experimental: as §1

human LIF = human LIF (human, UniProt P15018 23-202)
Experimental: as §1

human IL-1α = biological target: T4, human IL-1α (human, UniProt P01583 113-271)
T4 sequence (looked up): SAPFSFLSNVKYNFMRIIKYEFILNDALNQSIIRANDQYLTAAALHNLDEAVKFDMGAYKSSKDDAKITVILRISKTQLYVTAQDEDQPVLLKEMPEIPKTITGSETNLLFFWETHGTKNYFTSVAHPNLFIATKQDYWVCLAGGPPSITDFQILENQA
Experimental: as §1

human IL-10 = human IL-10 (human, UniProt P22301 19-178)
Experimental: as §1

human IGF-II = human IGF-II (human, UniProt P01344 25-91)
Experimental: as §1

human IL-4 = biological target: T5, human IL-4 (human, UniProt P05112 25-153)
T5 sequence (looked up): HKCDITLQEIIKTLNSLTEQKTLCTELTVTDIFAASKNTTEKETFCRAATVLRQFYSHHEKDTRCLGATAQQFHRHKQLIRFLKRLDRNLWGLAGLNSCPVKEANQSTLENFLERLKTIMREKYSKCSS
Experimental: as §1

human IFN-gamma = biological target: T6, human IFN-gamma (human, UniProt P01579 24-166, limits assumed)
T6 sequence (looked up): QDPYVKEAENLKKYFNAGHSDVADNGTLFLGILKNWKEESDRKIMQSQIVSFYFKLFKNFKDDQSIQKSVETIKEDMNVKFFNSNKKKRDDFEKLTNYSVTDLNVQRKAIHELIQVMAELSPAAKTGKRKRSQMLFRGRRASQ
Experimental: as §1

human M-CSF = biological target: T7, human M-CSF (human, UniProt P09603 33-190, limits assumed)
T7 sequence (looked up): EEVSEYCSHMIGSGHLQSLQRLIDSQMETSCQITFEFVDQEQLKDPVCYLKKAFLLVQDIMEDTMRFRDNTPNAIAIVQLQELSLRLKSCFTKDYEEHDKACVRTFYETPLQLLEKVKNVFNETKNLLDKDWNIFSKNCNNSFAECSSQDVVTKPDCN
Experimental: as §1

human TNFα = human TNFα (human, UniProt P01375 77-233)
Experimental: as §1

human TGF-β1 = human TGF-β1 (human, UniProt P01137 279-390)
Experimental: as §1

human IL-17 = human IL-17 (human, UniProt Q16552 20-155, limits assumed)
Experimental: as §1

Measured: binding result

human IL-17, sequence (Q16552 20-155 limits assumed): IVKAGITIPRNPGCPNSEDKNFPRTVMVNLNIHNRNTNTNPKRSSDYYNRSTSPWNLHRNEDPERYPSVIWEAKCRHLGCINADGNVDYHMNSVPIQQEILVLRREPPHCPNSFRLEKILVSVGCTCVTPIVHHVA
human TGF-β1, sequence (P01137 279-390 limits assumed): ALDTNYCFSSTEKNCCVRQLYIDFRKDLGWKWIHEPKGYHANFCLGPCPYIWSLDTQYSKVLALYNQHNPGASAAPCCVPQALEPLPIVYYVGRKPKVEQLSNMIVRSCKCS
human IL-10, sequence (P22301 19-178 limits assumed): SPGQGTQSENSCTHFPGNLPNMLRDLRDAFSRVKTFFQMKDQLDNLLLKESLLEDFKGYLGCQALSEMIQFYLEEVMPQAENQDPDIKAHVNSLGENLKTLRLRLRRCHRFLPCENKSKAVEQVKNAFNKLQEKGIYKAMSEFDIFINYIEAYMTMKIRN
human TNFα, sequence (P01375 77-233 limits assumed): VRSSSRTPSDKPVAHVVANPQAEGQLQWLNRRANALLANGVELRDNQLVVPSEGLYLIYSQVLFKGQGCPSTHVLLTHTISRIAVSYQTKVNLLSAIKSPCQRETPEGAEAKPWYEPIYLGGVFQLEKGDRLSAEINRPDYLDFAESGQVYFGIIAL
human LIF, sequence (P15018 23-202 limits assumed): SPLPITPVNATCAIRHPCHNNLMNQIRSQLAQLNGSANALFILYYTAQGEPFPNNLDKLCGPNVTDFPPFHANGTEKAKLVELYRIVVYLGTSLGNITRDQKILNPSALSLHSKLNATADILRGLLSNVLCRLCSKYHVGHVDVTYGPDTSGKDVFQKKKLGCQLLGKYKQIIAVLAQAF
human IL-6, sequence (P05231 30-212 limits assumed): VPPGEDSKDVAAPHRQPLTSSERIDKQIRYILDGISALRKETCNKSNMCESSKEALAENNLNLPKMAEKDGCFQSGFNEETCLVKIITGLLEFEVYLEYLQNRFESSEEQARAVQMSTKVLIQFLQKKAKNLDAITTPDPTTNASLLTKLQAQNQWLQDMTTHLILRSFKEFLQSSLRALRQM

B1: J695 (antibody, V domains shown)
VH: QVQLVESGGGVVQPGRSLRLSCAASGFTFSSYGMHWVRQAPGKGLEWVAFIRYDGSNKYYADSVKGRFTISRDNSKNTLYLQMNSLRAEDTAVYYCKTHGSHDNWGQGTMVTVSS
VL: QSVLTQPPSVSGAPGQRVTISCSGSRSNIGSNTVKWYQQLPGTAPKLLIYYNDQRPSGVPDRFSGSKSGTSASLAITGLQAEDEADYYCQSYDRYTHPALLFGTGTKVTVLG
notes: Human IgG1 with lambda light chain (detected with anti-human lambda); Made in CHO or COS cells
no binding (tested: 2 nM): human lymphotoxin | [1] | human IL-11 | human IL-1β | human IL-6 | human LIF | human IL-1α | human IL-10 | human IGF-II | human IL-4 | human IFN-gamma | human M-CSF | human TNFα | human TGF-β1 | human IL-17
